According to the supplement of paper PMC9170038:

Tested on: MS2 coat protein
Assay: apparent KD of MS2 coat protein; designed switch direction (-1 OFF switch, 1 ON switch): -1; higher = weaker reporter binding
Outline: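 The buffer was Tris-HCl pH 7.5 with KCl, MgCl2, BSA, DTT, tRNA and Tween-20. In it, SNAP-549-labelled MS2 coat protein was titrated in doubling steps from 0.7 or 1.5 nM to 3 µM over chip-bound RNA switches transcribed by stalled E. coli RNA polymerase on Illumina chips. Apparent KD is the per-design median over clusters of curve fits to normalised fluorescence.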

[1] = Eterna round: R95, input ligand: microRNA oligo, concentration not stated
[2] = input ligand: microRNA oligo, concentration not stated
[3] = Eterna round: R95, input ligand: FMN 200 uM
[4] = Eterna round: R95, input ligand: none

Row | Sequence | apparent KD of MS2 coat protein [1] [nM] | apparent KD of MS2 coat protein (input ligand: FMN 200 uM) [nM] | apparent KD of MS2 coat protein (input ligand: none) [nM] | also measured
1 | CUGAGCUGAGGAUAUACAUGAGGAUCACCCAUGUGGGCCUGCGAGGUUACUUGCACAUGUAGAAGGCAGUUCGG [Extended Mod of JL - ex3-3.35 Brourd mod] (puzzle: Exclusion 3) | 74.4 | – | – | –
2 | AGGCCACAUGAGGAUCACCCAUGUUAGGAUAUCGAGAGUACAACGAGCCGUCACUUCCCGAGAAGGGACAAGGG [Eternabot (Original) Solution 22] (Eterna round: R97, puzzle: Exclusion 1) | – | 65.3 | 54.5 | –
3 | UUCAUGUGAGGAUAUAGUACUCUUUCUAUUAUUUUUGAGUAUUAGAAGGCACAUGAGGAUCACCCAUGUAGUAC [Ex4 - 3 - 42] (puzzle: Exclusion 4) | 40.8 | – | – | –
4 | AUGGGUCCUCUCGGAGCUACAUGAGGAUCACCCAUGUGUAUUGAGGAUAUCCACUGCUCAGGACGGGAGAAGGCAGUGUACUGU [Ex NG3 #87] (Eterna round: R96, puzzle: Exclusion NG 3) | – | 51.4 | 58.4 | apparent KD of MS2 coat protein [2]: 46.3 nM
5 | AAGGUGUUAGGAUAUCGUAGUUUGAGGCAGACGGGAUUUUGCGAGAAGGAACAUGAGGAUCACCCAUGUAGGAU [JR_Exclu4_Sub040] (puzzle: Exclusion 4) | 25.9 | – | – | –
6 | CCUAUGUGAGGAUAUCACUGGUCUUCUCACUGGAUGACCAGUGAGAAGGCACAUGAGGAUCACCCAUGUCGGUG [Ex4 - 3 - 50] (puzzle: Exclusion 4) | 312 | – | – | –
7 | UAAAAGAAGGUCAGGAUAUGUAGUGAGCAAUCAGGACAGAAGGGACAUGAGGAUCACCCAUGUAACAGGGUAAA [Eninares] (puzzle: Brourd's mod of Exclusion 4) | 44.6 | – | – | apparent KD of MS2 coat protein [3]: 104 nM; apparent KD of MS2 coat protein [4]: 43.1 nM
8 | GACCGUGCUUAGGAUAUACGUUAGGAGUUGACCGUAGAAGGGAGUACAUGAGGAUCACCCAUGUCACCUACAGC [Eternabot (L2) Solution 75] (Eterna round: R97, puzzle: Exclusion 6) | – | 15.9 | 16.5 | –
9 | CCGUUGCUAGGAUAUACAUGAGGAUCACCCAUGUUUGAUCCAGCGAGUCAAUCCGCUUGUAGAAGGAGUUACAC [EX3 C.9] (Eterna round: R97, puzzle: Exclusion 3) | – | 25.3 | 26.4 | –
10 | UGUAUUAGGUCAGGAUAUACAUGAGGAUCACCCAUGUACAUGGAGCGAGUACAGUAUCAUGCAAGGUAGAAGGGACAGUCGACG [success! :D] (Eterna round: R96, puzzle: Exclusion NG 2) | – | 21.6 | 24.3 | apparent KD of MS2 coat protein [2]: 15.7 nM
11 | CUGGUCCGAGGAUAUAUUUUGUGAAACAUGAGGAUCACCCAUGUAAUAAAAUGGAUAUAAAUAGAAGGCGGACUAG [Mat - Exclusion 5 - JL mod - D41] (puzzle: Exclusion 5) | 21 | – | – | apparent KD of MS2 coat protein [3]: 25.1 nM; apparent KD of MS2 coat protein [4]: 18.1 nM
12 | GGAAAGCAAGGAUAUACAAGUAAACGAUGGAAAGUAGAGAGACAUGAGGAUCACCCAUGUAGAAGGUGCGAGAG [JR_Exclu2_Sub036] (puzzle: Exclusion 2) | 30.1 | – | – | apparent KD of MS2 coat protein [3]: 24.1 nM; apparent KD of MS2 coat protein [4]: 22.2 nM
13 | UGUUGUUACGCAGGAUAUGUAUGAGGAUCACCCAUAAGAGUAUAUUUACCAUGAGGAUCACCCAUGUAGAAGGGCGGGUUAACA [pwkr exNG2 2xF5 1xFMN.10] (Eterna round: R96, puzzle: Exclusion NG 2) | – | 224 | 144 | apparent KD of MS2 coat protein [2]: 109 nM
14 | UUGUUAUAUGUAGGAUAUGCAUAUUAUUAUUAUGCAGAAGGACAUGAGGAUCACCCAUGUAUAUUGUUAUUAUAUAUUAUAUAU [Title] (Eterna round: R96, puzzle: Exclusion NG 1) | – | – | – | apparent KD of MS2 coat protein [2]: 19 nM
15 | UUUCUACAUGUAGGAUAUGCGUGGCGAAGCUAUGCAGAAGGACAUGAGGAUCACCCAUGUUUUAGCGUCUGCGUACAGAUGCGU [JL ENG1 1.49] (Eterna round: R96, puzzle: Exclusion NG 1) | – | 60.9 | 20.6 | apparent KD of MS2 coat protein [2]: 16.2 nM
16 | UAAAAGUCAGGAUAUACAUGAGGAUCACCCAUGUAAAAUUUUAAUUUAAUUUUAAGGUGUAGAAGGGACAAUUU [Ex3 #1] (Eterna round: R97, puzzle: Exclusion 3) | – | 32.5 | 34.9 | –
17 | AGCUUUUUGUUCGUCUUACACAUGAGGAUCACCCAUGUGUUGGACCGCAUCGAUAGAUGUAGACCGAGAAGCAUGGG [Omdei Mir OFFv1 C8] (Eterna round: R97, puzzle: Sensor, turn-off variant 1) | – | 24.5 | 23.8 | –
18 | GAAUAGGCAGGAUAUACAUGAGGAUCACCCAUGUGCUUGCGAUAGGCACGUGAACAACGUAGAAGGGCCUUAAC [ChP 13.04.2015 #12] (puzzle: Exclusion 3) | 28.3 | – | – | –

Row | Sequence | apparent KD of MS2 coat protein [1] [nM] | apparent KD of MS2 coat protein (input ligand: FMN 200 uM) [nM] | apparent KD of MS2 coat protein (input ligand: none) [nM] | also measured
19 | UUUUUGUCAGGAUAUGAUUAGAUCUACUUCGGUAGAUCUAAUCAGAAGGGACAUGAGGAUCACCCAUGUAGUUU [Ex4 - 3 - 12] (puzzle: Exclusion 4) | 35.2 | – | – | –
20 | GCCUAUGUGGAGGAUAUCGACUUCGAAAGAAGUCGAGAAGGCCACACAUGAGGAUCACCCAUGUGGUGCCAGGC [Omei Ex6 H13] (Eterna round: R97, puzzle: Exclusion 6) | – | 336 | 293 | –
21 | AUAACAUGCUGGUGAUCAUACAUGAGGAUCACCCAUGUAACAAGCUUUUUGCUCGUCUUAUAAUUUAAGAUCACCAG [Stov1/7-A2] (Eterna round: R97, puzzle: Sensor, turn-off variant 1) | – | 17.4 | 18.1 | –
22 | UACCGGCGGACCGAAGCUUUUUGCUCGUCUUAUACUACAACAUGAGGAUCACCCAUGUGGUGGUGGUCCGUUGUAGU [JL ViennaUCT Bitein mod 4] (puzzle: Sensor v3, turn-off variant 2) | 15.7 | – | – | apparent KD of MS2 coat protein [3]: 20.2 nM; apparent KD of MS2 coat protein [4]: 13.5 nM
23 | CCUCGCCCUCUUGCACAUGAGGAUCACCCAUGUUUUACGUACUAGGAUAUAGCUAUGUUCAAUCGUUAGAAGGAGUUCAUGGAU [Eternabot solution 37] (Eterna round: R96, puzzle: Exclusion NG 3) | – | – | – | apparent KD of MS2 coat protein [2]: 77.4 nM
24 | UUUUAACAUGAGGAUCACCCAUGUGAGGAUAUCGAAAUUUAUAUUAAUAUUAAUAUUUCGAGAAGGCACAUUUU [JMF 25] (puzzle: Exclusion 1) | 125 | – | – | –
25 | UUUUUAGUGCUUUUUAAGUACAUGAGGAUCACCCAUGUACUUGUCUGGUGGUCCGGACAAGCUUUUUGCUCGUCUAG [Sensor v3 - turn-off variant 1 - 3] (puzzle: Sensor v3, turn-off variant 1) | 29.4 | – | – | apparent KD of MS2 coat protein [3]: 32.4 nM; apparent KD of MS2 coat protein [4]: 36.4 nM
26 | AAGUUGUGAGGAUAUACACAUCGUGCGGAAAGAUCCUUGUCACAUGAGGAUCACCCAUGUAGAAGGCGCGGUAU [Eternabot (L1) Solution 94] (Eterna round: R97, puzzle: Exclusion 2) | – | 530 | 740 | –
27 | CUGGUCCGAGGAUAUAUUUUGUGAUACAUGAGGAUCACCCAUGUAAUAAGAUGGAAGUAAAUAGAAGGCGGACUAG [Mat - Exclusion 5 - JL mod - D47] (puzzle: Exclusion 5) | 125 | – | – | apparent KD of MS2 coat protein [3]: 69.3 nM; apparent KD of MS2 coat protein [4]: 150 nM
28 | GUGUACGGAGGAUAUAUAUGGGCAGGCUGACCUGCAGCUUCACAUGAGGAUCACCCAUGUAGAAGGCUGUGCAC [JL-ex2-2.07 Brourd mod] (puzzle: Exclusion 2) | 27.1 | – | – | –
29 | ACAUGAGGAUCACCCAUGUCAGGCGGGUCCUCUCCGGCUGUUGAGGAUAUAGUCCGGUAUCCGCGCUAGAAGGUGAGGGCCGGC [Aenatbe mod 18] (Eterna round: R96, puzzle: Exclusion NG 3) | – | 18.1 | 20.2 | apparent KD of MS2 coat protein [2]: 16.4 nM
30 | AUUUUGUCAGGAUAUGACUAGUAGCACGAAAGUGCUACUACUUAGAAGGGACAUGAGGAUCACCCAUGUAUUCC [Bring Us a Shrubbery-10] (puzzle: Exclusion 4) | 15.1 | – | – | –
31 | GUAUAACUACACGGGCUCAACAUGAGGAUCACCCAUGUCAUAUACGCAAGCUUUUUGCUUGUCUUAUCAGGCCGUGA [Ceatxe] (puzzle: Sensor v3, turn-off variant 1) | 16.5 | – | – | apparent KD of MS2 coat protein [3]: 13.5 nM; apparent KD of MS2 coat protein [4]: 12.4 nM
32 | UAUAUAUAGUAAGGAUAUGUAUCUAUUUUAUAAACAGAAGGUACUGACAUGAGGAUCACCCAUGUUUUAGUGUGGGCAUGUAGA [JMF's solution 8] (Eterna round: R96, puzzle: Exclusion NG 1) | – | – | – | apparent KD of MS2 coat protein [2]: 71.6 nM
33 | AUACACUUAGUGAGGAUAUCGUUUUCUUUACGGAUCGAGAAGGCACAUGAGGAUCACCCAUGUUUGACGUGAAU [JR_BMOE4_Sub095] (puzzle: Brourd's mod of Exclusion 4) | 20.5 | – | – | –
34 | CCGGAACAUGAGGAUCACCCAUGUCAGGAUAUUCCAAAAUCGUCGAUAGACGAUAACAGGAGAAGGGACACCGG [Mat - Exclusion 1 - Eli Mod - D30] (Eterna round: R97, puzzle: Exclusion 1) | – | 20.4 | 15.7 | –
35 | UUUUACAAGCCAGAUCCUCACAUGAGGAUCACCCAUGUGCUCGUCUGUUUUCGCACUAUCACGUUUGUGAUAGUGCU [Level Boss var2-10] (puzzle: Sensor v3, turn-off variant 1) | 12.9 | – | – | apparent KD of MS2 coat protein [3]: 162 nM; apparent KD of MS2 coat protein [4]: 288 nM
36 | UUGUUCCGUGUAGGAUAUUGGUCUCCCUCGGGCCGAGAAGGACAUGAGGAUCACCCAUGUAUGCUAUUAUCGCGCGUGGCGCAU [Design 92] (Eterna round: R96, puzzle: Exclusion NG 1) | – | 209 | 58.9 | apparent KD of MS2 coat protein [2]: 48.5 nM
